Biological target: human IL13 (human) (UniProt P35225)
Assay: cell-based or functional assay

Sequence of human IL13 (human) (P35225 other isoform, or with tags, fused parts or gaps limits assumed): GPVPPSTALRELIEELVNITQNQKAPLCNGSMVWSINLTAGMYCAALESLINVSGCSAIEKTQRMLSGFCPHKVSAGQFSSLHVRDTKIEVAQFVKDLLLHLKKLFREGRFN

anti-IL13 MAb JES10-5A2 (BD Biosciences-Pharmingen) (antibody)
concentration for complete inhibition of IL13-suppressed CD14 expression on human monocytes (0.813 nM IL13): > 80 nM
